The values that follow come from the supplement of paper PMC12042874.

± gives the uncertainty stated by the source.

The data set in a line: amyloid nucleation score (Sup35N fusion, yeast selection) (log enrichment); library NNK2; higher = more nucleation; inactive = no reads after selection. The method in brief: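 The nucleation score equals the log enrichment of output over input reads from DiMSum, centred on the mode score of non-aggregating sequences. It was computed only for sequences with 100 or more input reads. The reads came from Illumina sequencing of plasmid inserts from psi-negative yeast expressing Sup35N fused to peptides of 20 random codons, induced with 100 μM copper sulfate for 24 hours and grown 7 days at 30°C without adenine and uracil.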
DLYMNEASTALGLGRGFLWG showed an amyloid nucleation score of -0.553 ± 1.1.

Regarding DMCLW, the amyloid nucleation score was -0.625 ± 0.33.

For the substance DMMCLLFGAKFNVQTGTHS, the amyloid nucleation score came to 5.231 ± 0.052.

In turn, DMNEDVGLGNKFC showed an amyloid nucleation score of 0.119 ± 0.54.

DMNLRLSEWVDFCSIGLFVK displayed an amyloid nucleation score of -0.272 ± 0.35.

For the substance DMSIRRRI, the amyloid nucleation score is -0.419 ± 0.32.

In the case of DMWQGEFKLGPRFSDENSQF, the amyloid nucleation score was -0.172 ± 1.1.

As to DNCLASVFINVKEFSHLCLW, the amyloid nucleation score is -0.451 ± 0.79.

The substance DNFYCHHVDLFSWMIRADLA gave an amyloid nucleation score of -0.847 ± 0.64.

For the substance DNGCELPFLFFMFASTVKWS, the amyloid nucleation score is -0.78 ± 1.1.

DNKRWLRIWMKFLKGDMHGL displayed an amyloid nucleation score of -0.283 ± 1.1.

For DNQGSLDNSSLCTVYSGFSV, the amyloid nucleation score entry is “inactive”.

DNRNCPAHWWASFTMKPGSE registered an amyloid nucleation score of 0.14 ± 0.49.

Substance DNSHWI displayed an amyloid nucleation score of 0.903 ± 0.47.

In turn, DNSYVMDLECLICCNFSNTK displayed an amyloid nucleation score of 8.201 ± 0.025.

DNYITLIAMKGYKTAYSTVS came in with an amyloid nucleation score of -0.116 ± 0.61.

As for DRARRVVIIWVYLIDRVNVR, the amyloid nucleation score was determined as 0.004 ± 1.1.

As for DRAYDVCGRSRRWYQKKLGM, the amyloid nucleation score was -0.667 ± 0.49.

As for DRHYCQKGEWRKDEDVFPVE, the amyloid nucleation score amounted to 0.13 ± 1.1.

DRINSFLFRETVWQNNWVIS registered an amyloid nucleation score of -0.263 ± 0.79.

For DRLAILSNFGVVMIPTLRLY, the amyloid nucleation score is -0.09 ± 0.4.

Consider DRLTG, for which the amyloid nucleation score was -0.705 ± 1.1.

DRMLCWDLGVIKNVLRTRVL came in with an amyloid nucleation score of -0.354 ± 0.55.

As to DRMQVRSR, the amyloid nucleation score was found to be 0.944 ± 0.27.

For DRPALCSLCSETSVVNTLHL, the amyloid nucleation score was found to be 5.74 ± 0.064.

In turn, DRPSCEFEPMFRRWDYSEGA had an amyloid nucleation score of 0.11 ± 0.23.

Take DRPVCMYNMF: the amyloid nucleation score is 1.63 ± 0.28.

Regarding DRRMGLIVPRMSDRTDPFSY, the amyloid nucleation score stood at 0.489 ± 0.29.

As for DRYISLCGW, the amyloid nucleation score was -0.086 ± 0.56.

For DSASNVW, the amyloid nucleation score amounted to 0.553 ± 0.37.

In the case of DSDHFA, the amyloid nucleation score was -1.58 ± 0.78.

For DSEGSA, the amyloid nucleation score entry was “inactive”.

Take DSEPVYYTVNFNQLLSRLYY: the amyloid nucleation score worked out at 1.52 ± 0.32.

With DSFIVYVR, the amyloid nucleation score was -0.072 ± 0.63.

The substance DSGCKFAAPCSVYPLFLFDM showed an amyloid nucleation score of -0.788 ± 1.1.

Turning to DSGRCFSFKWFCYFQHHHEV, the amyloid nucleation score was determined as 2.18 ± 0.17.

For the substance DSHADAISVAVKVGRWRYND, the amyloid nucleation score came to 1.53 ± 0.23.

Take DSILLSLCPTNCFKN: the amyloid nucleation score was -0.148 ± 0.63.

In turn, DSLEGVSCSLMSLSTLTGEC returned an amyloid nucleation score of 0.143 ± 0.54.

In turn, DSNTPHASMRYISFKRFFFV came in with an amyloid nucleation score of -0.107 ± 1.

As for DSPQHHECIMVWL, the amyloid nucleation score came to 4.38 ± 0.064.

On to DSSGVGTRLDCKLCFENLID, for which the amyloid nucleation score is -0.952 ± 0.47.

DSSIAYFIGVLASIGADEDR came in with an amyloid nucleation score of 6.452 ± 0.061.

DSSKSMCLICSNCILNFSEM came in with an amyloid nucleation score of 8.698 ± 0.049.

The substance DSSSCYMYLCTGNYPDNFNF returned an amyloid nucleation score of 4.5 ± 0.084.

In turn, DSVGMVRTLVWDWGQATNGR yielded an amyloid nucleation score of 0.953 ± 0.51.

For DTERRC, the amyloid nucleation score was -1.06 ± 0.61.

The substance DTFPKHSQHAVVKRPQIYID had an amyloid nucleation score of -1.04 ± 1.1.

Substance DTGSGAPVIKYCVAVPRSFT returned an amyloid nucleation score of 0.306 ± 0.57.

For DTPCSYISCMCNTIL, the amyloid nucleation score stood at 9.453 ± 0.03.

Take DTRFEVNAFTIGNRYATNGS: the amyloid nucleation score is -0.869 ± 0.41.

On to DVACNTRKPCS, for which the amyloid nucleation score is -0.908 ± 0.78.

DVCGD: the amyloid nucleation score is -0.566 ± 0.48.

On to DVDEVW, for which the amyloid nucleation score is -1.09 ± 0.61.

In turn, DVGSPWLNYSSFFIFWSTIS had an amyloid nucleation score of -1.02 ± 1.1.

DVHHRIIMMLLGGFWYACGY yielded an amyloid nucleation score of -0.428 ± 0.27.

In the case of DVIYNERTYLLFLTPHTMVV, the amyloid nucleation score was -0.991 ± 0.63.

Regarding DVLEIFVMTRGIVEVNPDSN, the amyloid nucleation score turned out to be 8.665 ± 0.031.

On to DVLRLTQTANLLCSSALRSA, for which the amyloid nucleation score came out at 1.07 ± 0.12.

DVLWTLQLLFDPVGLCLAMK showed an amyloid nucleation score of 0.391 ± 0.41.

For the substance DVSLNRGVRPF, the amyloid nucleation score was -0.123 ± 0.76.

As to DVSNLWFTNFCGFWGKYVVK, the amyloid nucleation score result is “inactive”.

Regarding DVVMG, the amyloid nucleation score is 0.701 ± 0.51.

In turn, DVVNVSYGPVITFMSVFRVS returned an amyloid nucleation score of 7.556 ± 0.051.

As to DWCTAAGDEMDMVVGGKVPN, the amyloid nucleation score amounted to 0.427 ± 0.34.

Turning to DWCVNVIERSGDTLEVMCNF, the amyloid nucleation score was found to be 0.817 ± 0.8.

The substance DWFCVHKV yielded an amyloid nucleation score of 0.058 ± 1.

DWFVSGTSDRVVGNSAGGGV came in with an amyloid nucleation score of 0.589 ± 0.66.

In the case of DWLNSVFFLPFKCGLCVLRA, the amyloid nucleation score is 0.06 ± 0.4.

As to DWQRRFAQIMIRGFNVILVT, the amyloid nucleation score was determined as 0.097 ± 1.1.

With DYCLSSICFLIDVGESFERG, the amyloid nucleation score is 0.171 ± 0.44.

In turn, DYFSNLIVDLTFLSGSFVFV came in with an amyloid nucleation score of -0.578 ± 1.1.

In the case of DYGEGLPNSMCCLVSFQ, the amyloid nucleation score was found to be 0.057 ± 1.1.

DYLIAIQLYDFYVHGLIKYR: the amyloid nucleation score is -0.853 ± 0.78.

The substance DYSLSWVRYSFAYRGVSKDG gave an amyloid nucleation score of 0.061 ± 0.12.

As to DYTNSTAEGFTF, the amyloid nucleation score entry is “inactive”.

For the substance DYVCGGGFLTKDVSACGLYV, the amyloid nucleation score is 0.685 ± 0.46.

DYVRCVDLSN gave an amyloid nucleation score of -0.863 ± 0.63.

In turn, DYWFLCAICLWVFTGMYLVE came in with an amyloid nucleation score of 0.01 ± 0.28.

In the case of EACLNGAA, the amyloid nucleation score is 0.638 ± 0.18.

Consider ECLKYRYSFFNWTSTSVFHA, for which the amyloid nucleation score was -0.435 ± 0.79.

Substance ECLTLFRTGRM showed an amyloid nucleation score of 5.306 ± 0.037.

Substance ECNTSVLSTWARDLVSPVLT registered an amyloid nucleation score of 4.3 ± 0.053.

Consider ECRRF, for which the amyloid nucleation score came out at 2.78 ± 0.12.

For the substance EDGGLCSASVRLYG, the amyloid nucleation score turned out to be 0.379 ± 0.33.

EDLYFTTGMLAKKCGPQGMG came in with an amyloid nucleation score of 5.04 ± 0.069.

For the substance EDRVCAYLNRKYCRYLGHSM, the amyloid nucleation score was found to be 1.29 ± 0.35.

Turning to EEWTVNCC, the amyloid nucleation score turned out to be 5.766 ± 0.046.

In the case of EFAELSSRQRFWHMFV, the amyloid nucleation score amounted to 1.04 ± 0.34.

Take EFVISKNSVPSPCRCW: the amyloid nucleation score came to 0.382 ± 0.8.

For EFWANRYGNHPLLGIHHCSP, the amyloid nucleation score was 0.135 ± 0.77.

As for EGCHVGNLDCLPSETATVSV, the amyloid nucleation score was determined as 0.143 ± 0.79.

EGIVSMFVIRVYV had an amyloid nucleation score of 0.63 ± 0.46.

On to EGRHNV, for which the amyloid nucleation score entry was “inactive”.

In the case of EGSNNVVVRDSAVYQVSGEM, the amyloid nucleation score is -0.375 ± 1.1.

EHHYI: the amyloid nucleation score is -0.202 ± 1.

Turning to EHVVSSRRLYLQGDILLNSQ, the amyloid nucleation score result was “inactive”.

Substance EICLDAITVVPLHGSIRLTV gave an amyloid nucleation score of 0.764 ± 0.25.

Substance EIEEYWGV displayed an amyloid nucleation score of -0.125 ± 0.63.

As for EIFAGICSSLAFKGHGRKSG, the amyloid nucleation score was 6.29 ± 0.065.

In turn, EILLR returned an amyloid nucleation score of 0.269 ± 0.8.

Regarding EILRSGMSCIWVLYDFIGI, the amyloid nucleation score was -0.437 ± 1.

EISAMVAL: the amyloid nucleation score is -1.06 ± 0.54.

EIVLFFCPVVKCME registered an amyloid nucleation score of 3.08 ± 0.098.

In turn, EIVQFLLHMYGSVREAMVAL came in with an amyloid nucleation score of -1.05 ± 0.56.

Turning to EKIFPLMGVKN, the amyloid nucleation score entry was “inactive”.

EKNTMDF gave an amyloid nucleation score of 1.64 ± 0.19.

Regarding EKRMNLVHYREYLPPFKRSN, the amyloid nucleation score is -0.403 ± 1.

The substance ELCPAT registered an amyloid nucleation score of 0.219 ± 0.3.

The substance ELCRCITFGLVCTFACYWVC registered an amyloid nucleation score of 0.592 ± 0.2.

Substance ELLQVEYNHHDSKEFMLVMI showed an amyloid nucleation score of 0.239 ± 0.43.

In the case of ELPGPHSGVTPPACEWSTHP, the amyloid nucleation score amounted to 0.422 ± 0.24.

ELRISPPDNRLWDPQ: the amyloid nucleation score was found to be 0.183 ± 1.

As for ELTSLQVMLSNDEMMGGRVN, the amyloid nucleation score was 0.064 ± 0.3.

As to ELWRYDINIERYKSTRSVYH, the amyloid nucleation score came to 3.08 ± 0.055.

As to EMGVGSYSGRCATSGGSNLQ, the amyloid nucleation score came out at 0.929 ± 0.27.

EMSVRPGVSRKIWS returned an amyloid nucleation score of 0.43 ± 0.49.

As for ENDMLTYYSLLFYWIKIVSY, the amyloid nucleation score entry was “inactive”.

For the substance ENGAKVLVIVYKGYPLVPWV, the amyloid nucleation score is -0.089 ± 0.46.

In the case of ENKILMGAWEVFWTYSEHPW, the amyloid nucleation score result was “inactive”.

For the substance ENYFCSYWFCFSWALG, the amyloid nucleation score was 6.362 ± 0.062.

In the case of EPDELPYLLKASLMSLGHGP, the amyloid nucleation score is 4.64 ± 0.073.

The substance EPGRRSYSWFCITRVFVMR registered an amyloid nucleation score of -0.171 ± 1.

EPLVKYPEYSFPSMVCMPSI returned an amyloid nucleation score of -0.478 ± 0.64.

For the substance EQIGQ, the amyloid nucleation score is 2.92 ± 0.089.

EQRGLASCLTIHHSRWCYTK: the amyloid nucleation score is 0.025 ± 0.33.

ERFRIGTCSIRCSYILGLRR had an amyloid nucleation score of -0.898 ± 0.54.

As for ERSNSRVVDL, the amyloid nucleation score is -0.539 ± 0.44.

ERVQMFQIRVQSAYVVFGVS: the amyloid nucleation score stood at 4.75 ± 0.077.

ESADQWAVTMVGRHFYLVLR yielded an amyloid nucleation score of 0.294 ± 1.1.

ESFLDINGVLRLRRLYVQSQ returned an amyloid nucleation score of 0.587 ± 0.56.

With ESMGGEYQGGVFVG, the amyloid nucleation score stood at 0.448 ± 0.38.

As to ESQNECVGYNMLDCMKLSRG, the amyloid nucleation score was 4.052 ± 0.037.

Substance ESSVITGLWHV showed an amyloid nucleation score of -0.081 ± 0.8.

In the case of ESSYVRIQ, the amyloid nucleation score worked out at 0.13 ± 0.4.

On to ESTLRVMGRKAISSGLMCIA, for which the amyloid nucleation score came to 0.269 ± 0.28.

Take ESTWVCIFSRVLYGGYCGDQ: the amyloid nucleation score came to 0.244 ± 0.33.

ETHYPPQ registered an amyloid nucleation score of 0.033 ± 0.32.

Take ETLPLNIILYACGEPHWFLL: the amyloid nucleation score is -0.407 ± 0.29.

Take ETMNA: the amyloid nucleation score was determined as 1.38 ± 0.16.

In turn, ETRRSYV came in with an amyloid nucleation score of 0.563 ± 0.38.

Consider ETVLFYSV, for which the amyloid nucleation score result was “inactive”.
